Reference: publication PMC5705603

Molecular target: Segmentally labelled CheA (P1 domain and P2-5 part labelled differently and joined) (Escherichia coli) (UniProt P07363)
Test: NMR titration

Chain of UniProt P07363 (P07363 whole entry, the tested form may be a part): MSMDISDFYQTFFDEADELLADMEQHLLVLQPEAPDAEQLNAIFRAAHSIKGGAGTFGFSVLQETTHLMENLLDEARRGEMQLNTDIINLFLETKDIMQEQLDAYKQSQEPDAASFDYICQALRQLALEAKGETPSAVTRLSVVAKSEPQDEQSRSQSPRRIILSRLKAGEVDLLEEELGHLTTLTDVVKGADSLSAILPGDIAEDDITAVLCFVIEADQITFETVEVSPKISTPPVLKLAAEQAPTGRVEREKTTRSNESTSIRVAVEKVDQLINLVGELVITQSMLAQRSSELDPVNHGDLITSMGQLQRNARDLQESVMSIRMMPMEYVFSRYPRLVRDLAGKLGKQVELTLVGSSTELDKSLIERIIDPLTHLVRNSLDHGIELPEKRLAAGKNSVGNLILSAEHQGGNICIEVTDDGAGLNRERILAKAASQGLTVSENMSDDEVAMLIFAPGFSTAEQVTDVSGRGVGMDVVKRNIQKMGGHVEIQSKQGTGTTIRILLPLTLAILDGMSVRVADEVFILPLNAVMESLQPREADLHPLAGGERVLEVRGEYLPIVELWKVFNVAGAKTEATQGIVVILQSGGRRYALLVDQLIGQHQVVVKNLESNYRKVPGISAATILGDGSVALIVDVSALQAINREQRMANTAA

Substance “CheY from Escherichia coli, wild type (from UniProt P0AE67 1-129) (natural protein)” has a stoichiometry N (CheY per CheA) of 2.
